Data from article PMC3135353 (The Journal of Experimental Medicine, 2011).

T1: B7-H6, extracellular portion (residues Asp25-Ser262) (human, UniProt Q68D85 25-262, N-linked glycans seen at Asn43, Asn57 and Asn208)
T1 sequence (looked up): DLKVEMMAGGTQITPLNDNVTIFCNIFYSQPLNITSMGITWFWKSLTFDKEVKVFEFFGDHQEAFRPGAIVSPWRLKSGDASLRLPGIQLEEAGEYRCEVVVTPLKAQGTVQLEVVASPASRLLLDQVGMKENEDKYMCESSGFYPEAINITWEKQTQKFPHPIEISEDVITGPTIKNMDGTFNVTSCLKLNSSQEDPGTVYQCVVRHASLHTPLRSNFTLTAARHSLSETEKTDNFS


biological target: T1, B7-H6, extracellular portion (residues …); test: SPR

Row | Kd | Binder
1 | 53 µM | NKp30 F85A/L86A mutant, extracellular portion (domain or fragment, human, UniProt O14931 19-135, looked up) LWVSQPPEIRTLEGSSAFLPCSFNASQGRLAIGSVTWFRDEVVPGKEVRNGTPEFRGRLAPLASSRAAHDHQAELHIRDVRGHDASIYVCRVEVLGLGVGTGNGTRLVVEKEHPQLG
2 | 14 µM | NKp30 I50A/S52A mutant, extracellular portion (domain or fragment, human, UniProt O14931 19-135, looked up) LWVSQPPEIRTLEGSSAFLPCSFNASQGRLAAGAVTWFRDEVVPGKEVRNGTPEFRGRLAPLASSRFLHDHQAELHIRDVRGHDASIYVCRVEVLGLGVGTGNGTRLVVEKEHPQLG
3 | 150 µM | NKp30 S52R mutant, extracellular portion (domain or fragment, human, UniProt O14931 19-135, looked up) LWVSQPPEIRTLEGSSAFLPCSFNASQGRLAIGRVTWFRDEVVPGKEVRNGTPEFRGRLAPLASSRFLHDHQAELHIRDVRGHDASIYVCRVEVLGLGVGTGNGTRLVVEKEHPQLG
